Target: Tau441 (tau protein) (UniProt P10636-8 1-441)
Assay: electrochemical aptasensor (DPV); aptamer on VG@Au electrode, MCH blocked; LOD 0.034 pg/mL, linear 0.1 pg/mL-1 ng/mL (not a Kd); Tau in PBS (10 mM, pH 7.4), 1 h at 37 C on electrode; DPV read in 5 mM Fe(CN)6 3-/4- with 0.1 M KCl
Details: protein: commercial

Sequence of Tau441 (tau protein) (P10636 other isoform, or with tags, fused parts or gaps): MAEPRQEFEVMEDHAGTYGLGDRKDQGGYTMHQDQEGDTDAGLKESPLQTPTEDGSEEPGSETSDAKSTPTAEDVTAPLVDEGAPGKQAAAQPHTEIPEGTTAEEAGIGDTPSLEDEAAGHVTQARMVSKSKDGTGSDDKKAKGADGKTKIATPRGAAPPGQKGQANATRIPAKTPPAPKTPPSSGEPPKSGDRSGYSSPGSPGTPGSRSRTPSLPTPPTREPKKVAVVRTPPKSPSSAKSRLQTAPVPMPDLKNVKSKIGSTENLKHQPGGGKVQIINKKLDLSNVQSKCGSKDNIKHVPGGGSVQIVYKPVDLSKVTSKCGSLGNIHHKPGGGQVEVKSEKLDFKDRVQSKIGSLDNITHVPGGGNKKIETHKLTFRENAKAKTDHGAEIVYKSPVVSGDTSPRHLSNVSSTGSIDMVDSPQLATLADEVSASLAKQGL

B1: tau DNA aptamer (ssDNA)
DNA: CAGCACCGTCAACTGAATGGGTTGGCCGGGCAGCGGGGGGTAGGCTGGTGATGCGATGGAGATGT
modifications: 5' SH-(CH2)6 thiol linker
binding result: binds

From article PMC9331743, “Portable Vertical Graphene@Au-Based Electrochemical Aptasensing Platform for Point-of-Care Testing of Tau Protein in the Blood”
